Reference: patent US20090054631A1

Biological target: receptor for UNQ733 on the surface of lymphoma cell lines and B cells (unidentified) (human)
Experiment: flow cytometry on purified human peripheral blood B cells, 48 h with anti-CD40 and rIL-4

fold increase of binding on B cells stimulated with anti-CD40 and IL-4 against resting B cells: 2 to 5 fold
Substance: His8-tagged UNQ733 polypeptide (ligand)
